Results from publication PMC3677378.

What was measured:
[1] = biological target: E. coli ribosomal post-peptide-release complex (RC; 70S, tRNA^fMet and [Met, stop]-mRNA) (E. coli) (UniProt P0AG67); assay: co-sedimentation; as a1 but with extra GDP titrated in, up to 200 μM extra GDP; ultracentrifugation on sucrose cushion, SDS-PAGE
[2] = biological target: E. coli ribosomal post-peptide-release complex (RC; 70S, tRNA^fMet and [Met, stop]-mRNA) (E. coli) (UniProt P0AG67); assay: co-sedimentation; RC or naked 70S (ribosomes 0.5 µM) with RF1 (2 µM) and RF3 (6 µM), 1xHEPES-polymix buffer, 37°C 10 min, no extra added GDP; ultracentrifugation on 30% sucrose cushion, SDS-PAGE, band intensities compared with ribosomal protein S1

stoichiometry N (RF1 per S1 (band intensity)) [1]: 1
stoichiometry N (RF1 per S1 (band intensity)) [2]: 1
Substance: release factor 1 (RF1), wild type (from UniProt P0A7I0 1-360) (natural protein)
